Assays:
[1] = biological target: pure human iC3b (Complement Technology, A115) (human) (UniProt P01024); assay: sandwich ELISA, capture A209 (Example 5), goat anti-C3-HRP; TABLE 6 well F3, 20% vitreous
[2] = biological target: pure human iC3b (Complement Technology, A115) (human) (UniProt P01024); assay: sandwich ELISA, capture A209 (Example 5), goat anti-C3-HRP; TABLE 6 well H8, 10% vitreous
[3] = biological target: pure human iC3b (Complement Technology, A115) (human) (UniProt P01024); assay: sandwich ELISA, capture A209 (Example 5), goat anti-C3-HRP; TABLE 6 well H7, 10% vitreous
[4] = biological target: pure human iC3b (Complement Technology, A115) (human) (UniProt P01024); assay: sandwich ELISA, capture A209 (Example 5), goat anti-C3-HRP; TABLE 6 well F7, 20% vitreous
[5] = biological target: pure human iC3b (Complement Technology, A115) (human) (UniProt P01024); assay: sandwich ELISA, capture A209 (Example 5), goat anti-C3-HRP; TABLE 6 well A3, blocker
[6] = biological target: pure human iC3b (Complement Technology, A115) (human) (UniProt P01024); assay: sandwich ELISA, capture A209 (Example 5), goat anti-C3-HRP; TABLE 6 well A6, blocker
[7] = biological target: pure human iC3b (Complement Technology, A115) (human) (UniProt P01024); assay: sandwich ELISA, capture A209 (Example 5), goat anti-C3-HRP; TABLE 6 well F2, 20% vitreous
[8] = biological target: pure human iC3b (Complement Technology, A115) (human) (UniProt P01024); assay: sandwich ELISA, capture A209 (Example 5), goat anti-C3-HRP; TABLE 6 well F9, 20% vitreous
[9] = biological target: pure human iC3b (Complement Technology, A115) (human) (UniProt P01024); assay: sandwich ELISA of Example 5, iC3b concentration labeled 0.0125 in 20% human vitreous, duplicate 1
[10] = biological target: pure human iC3b (Complement Technology, A115) (human) (UniProt P01024); assay: sandwich ELISA, capture A209 (Example 5), goat anti-C3-HRP; TABLE 6 well C2, 30% vitreous
[11] = biological target: pure human iC3b (Complement Technology, A115) (human) (UniProt P01024); assay: sandwich ELISA, capture A209 (Example 5), goat anti-C3-HRP; TABLE 6 well A4, blocker
[12] = biological target: pure human iC3b (Complement Technology, A115) (human) (UniProt P01024); assay: sandwich ELISA, capture A209 (Example 5), goat anti-C3-HRP; TABLE 6 well B4, blocker
[13] = biological target: pure human iC3b (Complement Technology, A115) (human) (UniProt P01024); assay: sandwich ELISA, capture A209 (Example 5), goat anti-C3-HRP; TABLE 6 well E2, 20% vitreous
[14] = biological target: pure human iC3b (Complement Technology, A115) (human) (UniProt P01024); assay: sandwich ELISA, capture A209 (Example 5), goat anti-C3-HRP; TABLE 6 well D5, 30% vitreous
[15] = biological target: pure human iC3b (Complement Technology, A115) (human) (UniProt P01024); assay: sandwich ELISA, capture A209 (Example 5), goat anti-C3-HRP; TABLE 6 well B9, blocker
[16] = biological target: pure human iC3b (Complement Technology, A115) (human) (UniProt P01024); assay: sandwich ELISA, capture A209 (Example 5), goat anti-C3-HRP; TABLE 6 well D7, 30% vitreous
[17] = biological target: pure human iC3b (Complement Technology, A115) (human) (UniProt P01024); assay: sandwich ELISA, capture A209 (Example 5), goat anti-C3-HRP; TABLE 6 well H6, 10% vitreous
[18] = biological target: pure human iC3b (Complement Technology, A115) (human) (UniProt P01024); assay: sandwich ELISA, capture A209 (Example 5), goat anti-C3-HRP; TABLE 6 well C5, 30% vitreous
[19] = biological target: pure human iC3b (Complement Technology, A115) (human) (UniProt P01024); assay: sandwich ELISA, capture A209 (Example 5), goat anti-C3-HRP; TABLE 6 well A8, blocker
[20] = biological target: pure human iC3b (Complement Technology, A115) (human) (UniProt P01024); assay: sandwich ELISA, capture A209 (Example 5), goat anti-C3-HRP; TABLE 6 well A5, blocker
[21] = biological target: pure human iC3b (Complement Technology, A115) (human) (UniProt P01024); assay: sandwich ELISA, capture A209 (Example 5), goat anti-C3-HRP; TABLE 6 well D3, 30% vitreous
[22] = biological target: pure human iC3b (Complement Technology, A115) (human) (UniProt P01024); assay: sandwich ELISA, capture A209 (Example 5), goat anti-C3-HRP; TABLE 6 well G2, 10% vitreous
[23] = biological target: pure human iC3b (Complement Technology, A115) (human) (UniProt P01024); assay: sandwich ELISA, capture A209 (Example 5), goat anti-C3-HRP; TABLE 7, iC3b in blocker
[24] = biological target: pure human iC3b (Complement Technology, A115) (human) (UniProt P01024); assay: sandwich ELISA, capture A209 (Example 5), goat anti-C3-HRP; TABLE 6 well D9, 30% vitreous
[25] = biological target: pure human iC3b (Complement Technology, A115) (human) (UniProt P01024); assay: sandwich ELISA, capture A209 (Example 5), goat anti-C3-HRP; TABLE 6 well H3, 10% vitreous

Sequence of UniProt P01024 (P01024 23-667 limits assumed, chain 1 of 3): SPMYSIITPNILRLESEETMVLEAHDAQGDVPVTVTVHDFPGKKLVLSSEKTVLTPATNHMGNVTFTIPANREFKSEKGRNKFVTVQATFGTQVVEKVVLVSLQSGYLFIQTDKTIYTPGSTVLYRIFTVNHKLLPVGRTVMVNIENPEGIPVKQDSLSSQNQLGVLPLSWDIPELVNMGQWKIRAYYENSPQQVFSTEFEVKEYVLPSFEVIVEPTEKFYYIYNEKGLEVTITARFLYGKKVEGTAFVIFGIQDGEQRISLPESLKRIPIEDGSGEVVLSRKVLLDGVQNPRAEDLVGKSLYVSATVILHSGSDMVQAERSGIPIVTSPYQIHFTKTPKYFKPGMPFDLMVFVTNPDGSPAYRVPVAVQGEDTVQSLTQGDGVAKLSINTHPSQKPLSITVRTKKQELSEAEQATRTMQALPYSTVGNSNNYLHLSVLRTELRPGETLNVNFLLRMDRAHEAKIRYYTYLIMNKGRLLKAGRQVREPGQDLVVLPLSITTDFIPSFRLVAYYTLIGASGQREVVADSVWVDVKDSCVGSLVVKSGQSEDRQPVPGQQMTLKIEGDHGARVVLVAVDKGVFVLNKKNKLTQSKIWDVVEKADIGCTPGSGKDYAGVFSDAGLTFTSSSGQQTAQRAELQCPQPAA
Sequence of UniProt P01024 (P01024 749-1303 limits assumed, chain 2 of 3): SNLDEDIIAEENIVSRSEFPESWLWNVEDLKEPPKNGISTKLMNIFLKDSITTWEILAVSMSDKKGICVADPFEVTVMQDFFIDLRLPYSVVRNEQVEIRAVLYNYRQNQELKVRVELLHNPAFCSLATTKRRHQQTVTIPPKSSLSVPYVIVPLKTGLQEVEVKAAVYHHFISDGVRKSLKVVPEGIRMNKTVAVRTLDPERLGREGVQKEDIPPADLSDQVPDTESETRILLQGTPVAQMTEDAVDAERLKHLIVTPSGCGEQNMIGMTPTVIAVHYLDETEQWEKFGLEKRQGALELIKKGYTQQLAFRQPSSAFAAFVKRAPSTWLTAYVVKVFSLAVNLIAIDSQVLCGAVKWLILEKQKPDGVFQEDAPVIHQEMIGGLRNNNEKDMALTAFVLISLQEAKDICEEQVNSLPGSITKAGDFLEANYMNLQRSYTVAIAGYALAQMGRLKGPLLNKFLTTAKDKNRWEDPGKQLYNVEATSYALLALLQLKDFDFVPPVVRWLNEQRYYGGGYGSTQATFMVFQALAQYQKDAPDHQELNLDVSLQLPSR
Sequence of UniProt P01024 (P01024 1321-1663 limits assumed, chain 3 of 3): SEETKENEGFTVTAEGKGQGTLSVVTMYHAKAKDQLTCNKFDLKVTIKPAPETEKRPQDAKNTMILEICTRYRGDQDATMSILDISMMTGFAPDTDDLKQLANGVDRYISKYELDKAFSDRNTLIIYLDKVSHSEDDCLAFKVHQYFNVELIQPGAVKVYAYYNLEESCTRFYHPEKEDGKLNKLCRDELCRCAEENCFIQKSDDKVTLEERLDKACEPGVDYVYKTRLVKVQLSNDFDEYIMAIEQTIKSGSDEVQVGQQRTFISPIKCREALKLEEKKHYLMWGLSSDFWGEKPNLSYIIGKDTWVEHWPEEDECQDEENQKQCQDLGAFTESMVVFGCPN

mouse anti-iC3b antibody A209 (Quidel)
raw A450 at iC3b 0.5 ug/ml [1]: 0.45 OD | raw A450 at iC3b 0.016 ug/ml [2]: 0.237 OD | raw A450 at iC3b 0.031 ug/ml [3]: 0.231 OD | raw A450 at iC3b 0.031 ug/ml [4]: 0.333 OD | raw A450 at iC3b 0.5 ug/ml [5]: 0.258 OD | raw A450 at iC3b 0.063 ug/ml [6]: 0.064 OD | raw A450 at iC3b 1 ug/ml [7]: 0.527 OD | raw A450 at iC3b 0.0078 ug/ml [8]: 0.38 OD | absorbance A450, raw [9]: 0.361 A450 | raw A450 at iC3b 1 ug/ml [10]: 0.443 OD | raw A450 at iC3b 0.25 ug/ml [11]: 0.169 OD | raw A450 at iC3b 0.25 ug/ml [12]: 0.167 OD | raw A450 at iC3b 1 ug/ml [13]: 0.485 OD | raw A450 at iC3b 0.125 ug/ml [14]: 0.391 OD | raw A450 at iC3b 0.0078 ug/ml [15]: 0.032 OD | raw A450 at iC3b 0.031 ug/ml [16]: 0.356 OD | raw A450 at iC3b 0.063 ug/ml [17]: 0.23 OD | raw A450 at iC3b 0.125 ug/ml [18]: 0.385 OD | raw A450 at iC3b 0.016 ug/ml [19]: 0.043 OD | raw A450 at iC3b 0.125 ug/ml [20]: 0.106 OD | raw A450 at iC3b 0.5 ug/ml [21]: 0.406 OD | raw A450 at iC3b 1 ug/ml [22]: 0.508 OD | A450 minus matrix average at iC3b 0.016 ug/ml [23]: 0.011 OD | A450 minus matrix average at iC3b 0.031 ug/ml [23]: 0.021 OD | A450 minus matrix average at iC3b 0.063 ug/ml [23]: 0.037 OD | A450 minus matrix average at iC3b 0.125 ug/ml [23]: 0.073 OD | A450 minus matrix average at iC3b 0.25 ug/ml [23]: 0.138 OD | A450 minus matrix average at iC3b 0.5 ug/ml [23]: 0.232 OD | A450 minus matrix average at iC3b 1 ug/ml [23]: 0.328 OD | raw A450 at iC3b 0.0078 ug/ml [24]: 0.362 OD | raw A450 at iC3b 0.5 ug/ml [25]: 0.316 OD

Reference: patent US20160153985A1
